Source: patent publication US6521741 (FRANK KOENTGEN, dated 2003)

Biological target: T1, streptavidin (UniProt P22629 37-163, limits assumed)
T1 construct: Immobilised on column material; also called streptavidin column; streptavidin matrix
Assay: streptavidin column pull-down, SDS gel
Description: FIG. 11 is a photographic representation of LHL purified via kappa-loaded streptavidin column as shown on a silver stained 20% w/v polyacrylamide SDS PHAST-gel. LHL= LHL alone plus streptavidin matrix; LHL-kappa=LHL purified on the kappa-loaded streptavidin matrix; kappa=kappa alone bound to streptavidin matrix.

T1 sequence (P22629 37-163 limits assumed): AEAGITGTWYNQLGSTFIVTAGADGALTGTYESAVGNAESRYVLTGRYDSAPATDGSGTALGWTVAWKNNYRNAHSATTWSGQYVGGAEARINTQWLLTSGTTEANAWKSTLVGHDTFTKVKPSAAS

B1: LHL (designed binder)
chain: APKDNTEEVTIKANLIFANGSTQTAEFKGTFEKATSEAYAYADTLKKDNGEYTVDVADKGYTLNIKFAGKEATNRNTDGSTDYGILQINSRWGGLTLKEEVTIKANLIFANGSTQTAEFKGTFEKATSEAYAYADTLKKDNGEYTVDVADKGYTLNIKFAG
notes: Expressed in E. coli from pASK75; LHL carries no strep-tag; also called growth factor LHL
B1: no binding.
